Data on one molecule can be found in US20260347484 (published 2026).

For this experiment, the target named is human IGF-1R (human, UniProt P08069). The experiment in a line: BLI. In general terms: Biolayer interferometry detects binding as a change in optical thickness at a sensor tip.

B1: PHP1003-3 (designed binder)
chain 1: QVQLQQSGPGLVKPSQTLSLTCTVSGWSISGGWLWNWIRQPPGKGLQWIGWISWDGTNNWKPSLKDRVTISVDTSKNQFSLKLSSVTAADTAVWWCARWGRVFFDWWGQGTLVTVSS
chain 2: DIVMTQSPLSLPVTPGQPASISCRSSQSIVHSNGNTWLQWWLQKPGQSPQLLIWKVSNRLWGVPDRFSGSGSGTDFTLKISRVQAQDVGVWWCFQGSHVPWTFGQGTKVQIK
Usually Kd stands for the free concentration of one partner at which half of the binding sites on the other are occupied at equilibrium, for simple one-to-one binding. Turning to B1, binding was put at a Kd of 1.85 nM.
